Assay results reported in patent US20250320281A1.

Tests used:
Test in all cases: cell-based or functional assay
[1] = molecular target: HIV-1 Env of isolate SC422661.8 (subtype B) (HIV-1)
[2] = molecular target: HIV-1 Env of isolate MGRM-AG-013 (subtype AG) (HIV-1)
[3] = molecular target: HIV-1 Env of isolate 94UG103 (HIV-1)
[4] = molecular target: HIV-1 Env of isolate MGRM-A-007 (subtype A) (HIV-1)
[5] = molecular target: HIV-1 envelope glycoprotein (Env) of isolate MGRM-C-017 (HIV-1)
[6] = molecular target: HIV-1 Env of isolate TRO.11 (subtype B) (HIV-1)
[7] = molecular target: HIV-1 Env of isolate MGRM-A-014 (subtype A) (HIV-1)
[8] = molecular target: HIV-1 Env of isolate 92TH021 (subtype AE) (HIV-1)
[9] = molecular target: HIV-1 Env of isolate 92UG114 (HIV-1)
[10] = molecular target: HIV-1 Env of isolate MGRM-C-002 (subtype C) (HIV-1)
[11] = molecular target: HIV-1 Env of isolate 94KE105 (subtype AC) (HIV-1)
[12] = molecular target: HIV-1 Env of isolate MGRM-Chronic-B-004 (subtype B) (HIV-1)
[13] = molecular target: HIV-1 Env of isolate MGRM-Chronic-B-023 (subtype B) (HIV-1)
[14] = molecular target: HIV-1 Env of isolate MGRM-AG-003 (subtype AG) (HIV-1)
[15] = molecular target: HIV-1 Env of isolate MGRM-Chronic-B-003 (subtype B) (HIV-1)
[16] = molecular target: HIV-1 envelope glycoprotein (Env) of isolate MGRM-C-019 (HIV-1)
[17] = molecular target: HIV-1 Env of pseudovirus MGRM-G-016 (HIV-1, clade G isolate MGRM-G-016)
[18] = molecular target: HIV-1 Env of isolate 92UG024 (clade D pseudovirus) (HIV-1)
[19] = molecular target: HIV-1 Env of isolate MGRM-G-014 (HIV-1)
[20] = molecular target: HIV-1 Env of isolate THR0.18 (Acute), clade B, on pseudovirus (HIV-1)
[21] = molecular target: HIV-1 Env of pseudovirus MGRM-Chronic-B-017 (HIV-1)
[22] = molecular target: HIV-1 Env of isolate 93IN905 (HIV-1)
[23] = molecular target: HIV-1 Env of isolate MGRM-D-004 (clade D pseudovirus) (HIV-1)
[24] = molecular target: HIV-1 Env of isolate MGRM-G-028 (HIV-1)
[25] = molecular target: HIV-1 APV17 Env (pseudovirus, clade B) (HIV-1)
[26] = molecular target: aMLV envelope, on pseudovirus (negative control virus)
[27] = molecular target: HIV-1 JRFL Env (pseudovirus) (HIV-1)
[28] = molecular target: HIV-1 Env of isolate MGRM-C-028 (HIV-1)
[29] = molecular target: HIV-1 Env of isolate MGRM-AG-002 (HIV-1)
[30] = molecular target: HIV-1 Env of isolate SF162 (subtype B pseudovirus) (HIV-1) (UniProt P19550)
[31] = molecular target: HIV-1 Env of isolate 97ZA012 (HIV-1)
[32] = molecular target: HIV-1 Env of isolate MGRM-AE-004 (HIV-1)
[33] = molecular target: HIV-1 Env of isolate MGRM-D-001 (pseudovirus) (HIV-1)
[34] = molecular target: HIV-1 Env of isolate MGRM-D-020 (pseudovirus) (HIV-1)
[35] = molecular target: HIV-1 Env of isolate MGRM-D-008 (pseudovirus) (HIV-1)
[36] = molecular target: HIV-1 Env of isolate 93IN905 (subtype C pseudovirus) (HIV-1)
[37] = molecular target: HIV-1 Env of isolate MGRM-Chronic-B-012 (subtype B pseudovirus) (HIV-1)
[38] = molecular target: HIV-1 Env of isolate APV_17 (subtype B pseudovirus) (HIV-1)
[39] = molecular target: aMLV envelope (pseudovirus, negative control)

4970_K22 (PGT-144) (antibody), sequence (VH): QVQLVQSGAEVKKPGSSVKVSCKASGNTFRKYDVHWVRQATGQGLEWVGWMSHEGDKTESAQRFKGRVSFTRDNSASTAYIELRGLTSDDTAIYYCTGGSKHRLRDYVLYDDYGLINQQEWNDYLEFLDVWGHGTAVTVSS
4970_K22 (PGT-144) (antibody), sequence (VL): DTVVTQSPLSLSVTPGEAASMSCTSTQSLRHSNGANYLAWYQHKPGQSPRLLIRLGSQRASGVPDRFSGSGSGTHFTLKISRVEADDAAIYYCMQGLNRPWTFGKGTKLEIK
5345_I01 (PGT-137) (antibody), sequence (VH): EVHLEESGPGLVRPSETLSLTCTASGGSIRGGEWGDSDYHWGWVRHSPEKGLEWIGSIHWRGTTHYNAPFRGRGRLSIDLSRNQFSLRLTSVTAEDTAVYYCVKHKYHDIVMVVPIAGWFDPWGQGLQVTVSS
5345_I01 (PGT-137) (antibody), sequence (VL): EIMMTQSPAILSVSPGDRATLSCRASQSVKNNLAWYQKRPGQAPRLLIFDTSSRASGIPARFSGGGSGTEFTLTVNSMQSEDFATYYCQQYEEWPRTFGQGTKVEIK
4980_N08 (PGT-143) (antibody), sequence (VH): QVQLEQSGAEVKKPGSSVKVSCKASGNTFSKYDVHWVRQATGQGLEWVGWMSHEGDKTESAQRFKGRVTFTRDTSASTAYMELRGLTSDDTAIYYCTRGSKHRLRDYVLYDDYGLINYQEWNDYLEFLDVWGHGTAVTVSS
4980_N08 (PGT-143) (antibody), sequence (VL): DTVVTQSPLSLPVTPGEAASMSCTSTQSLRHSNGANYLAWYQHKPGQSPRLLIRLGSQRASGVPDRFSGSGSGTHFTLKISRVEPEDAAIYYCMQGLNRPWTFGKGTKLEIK
4993_K13 (PGT-141) (antibody), sequence (VH): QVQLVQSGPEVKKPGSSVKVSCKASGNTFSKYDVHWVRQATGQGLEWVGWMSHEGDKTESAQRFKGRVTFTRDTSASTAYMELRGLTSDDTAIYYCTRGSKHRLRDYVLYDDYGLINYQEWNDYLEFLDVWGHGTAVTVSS
4993_K13 (PGT-141) (antibody), sequence (VL): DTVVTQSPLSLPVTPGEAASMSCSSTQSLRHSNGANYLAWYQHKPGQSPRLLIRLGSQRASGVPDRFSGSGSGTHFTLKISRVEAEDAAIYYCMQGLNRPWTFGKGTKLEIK
4995_E20 (PGT-142) (antibody), sequence (VH): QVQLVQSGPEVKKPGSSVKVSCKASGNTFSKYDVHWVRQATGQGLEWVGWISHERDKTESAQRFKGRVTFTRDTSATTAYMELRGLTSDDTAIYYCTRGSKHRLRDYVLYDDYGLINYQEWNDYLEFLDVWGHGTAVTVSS

Substance | IC50 (µg/mL), pseudovirus neutralization [8] [µg/mL] | IC50 (µg/mL), pseudovirus neutralization [19] [µg/mL] | IC50 (µg/mL), pseudovirus neutralization [24] [µg/mL] | IC50, pseudovirus neutralization [26] [µg/mL] | IC50 [29] [µg/mL] | IC50 (µg/mL), pseudovirus neutralization [30] [µg/mL] | neutralization IC50 [31] [µg/mL] | IC50 [32] [µg/mL] | IC50, pseudovirus neutralization [33] [µg/mL] | neutralization IC50 [28] [µg/mL] | IC50, pseudovirus neutralization [34] [µg/mL] | IC50, pseudovirus neutralization [35] [µg/mL] | IC50 (µg/mL), pseudovirus neutralization [36] [µg/mL] | IC50 (µg/mL), pseudovirus neutralization [37] [µg/mL] | IC50 (µg/mL), pseudovirus neutralization [38] [µg/mL] | other results
5345_I01 (PGT-137) (antibody) | > 50 |  |  |  |  |  |  |  |  |  |  |  |  |  |  | IC50 neutralization [1]: > 50 µg/mL; IC50 (µg/mL), pseudovirus neutralization [2]: > 50 µg/mL; IC50 [3]: > 50 µg/mL; IC50 (µg/mL), pseudovirus neutralization [4]: > 50 µg/mL; IC50 (µg/mL), pseudovirus neutralization [5]: > 50 µg/mL; IC50 neutralization [6]: 9.35 µg/mL; IC50 (µg/mL), pseudovirus neutralization [7]: 18.6 µg/mL; IC50 (µg/mL), pseudovirus neutralization [9]: > 50 µg/mL; IC50 neutralization [10]: 8.03 µg/mL; IC50 (µg/mL), pseudovirus neutralization [11]: 18.5 µg/mL; IC50 neutralization [12]: > 50 µg/mL; IC50 neutralization [13]: > 50 µg/mL; IC50 (µg/mL), pseudovirus neutralization [14]: > 50 µg/mL; IC50 neutralization [15]: > 50 µg/mL; IC50 (µg/mL), pseudovirus neutralization [16]: > 50 µg/mL
1496_C09 (PG9) (TCN-109) (antibody) |  | 16.5 | 0.891 |  |  |  |  |  |  |  |  |  |  |  |  | IC50 (µg/ml), pseudovirus neutralization [17]: 0.4 µg/mL; IC50 (µg/ml), pseudovirus neutralization [18]: 1.91 µg/mL; IC50 (µg/ml), pseudovirus neutralization [20]: 12.4 µg/mL; IC50 (µg/ml), pseudovirus neutralization [21]: 0.32 µg/mL; IC50 [22]: 0.03 µg/mL; IC50 (µg/ml), pseudovirus neutralization [23]: 0.03 µg/mL
5343_B08 (PGT-135) (antibody) | > 50 |  |  | > 10 |  |  |  |  |  |  |  |  |  |  |  | IC50 neutralization [1]: 21.8 µg/mL; IC50 (µg/mL), pseudovirus neutralization [2]: > 50 µg/mL; IC50 [3]: > 50 µg/mL; IC50 neutralization [25]: > 10 µg/mL; IC50 (µg/mL), pseudovirus neutralization [4]: > 50 µg/mL; IC50 (µg/mL), pseudovirus neutralization [5]: > 50 µg/mL; IC50 neutralization [6]: 0.03 µg/mL; IC50 (µg/mL), pseudovirus neutralization [7]: 0.636 µg/mL; IC50 (µg/mL), pseudovirus neutralization [9]: 1.29 µg/mL; IC50 neutralization [10]: > 50 µg/mL; IC50 (µg/mL), pseudovirus neutralization [11]: 0.063 µg/mL; IC50 neutralization [12]: > 50 µg/mL; IC50 neutralization [13]: 0.329 µg/mL; IC50 (µg/mL), pseudovirus neutralization [14]: > 50 µg/mL; IC50 neutralization [15]: > 50 µg/mL; IC50 (µg/mL), pseudovirus neutralization [16]: 0.264 µg/mL; IC50 (neutralizing activity, pseudovirus) [27]: > 10 µg/mL
VRC01 (antibody) | 0.616 | 0.056 | 0.164 |  |  |  |  |  |  |  |  |  |  |  |  | IC50 (µg/mL), pseudovirus neutralization [28]: 0.319 µg/mL
4877_D15 (PGT-122) (antibody) |  |  |  | > 10 | > 50 | 0.009 | 0.004 | > 50 | 1.13 | 2.22 | 0.007 | > 50 | 0.013 | 0.066 | 0.25 | IC50 neutralization [25]: 0.522 µg/mL; neutralization IC50 (pseudovirus) [39]: > 10 µg/mL; neutralization IC50 (pseudovirus) [27]: 0.0471 µg/mL
4995_E20 (PGT-142) (antibody) | 0.002 | 0.076 | 30.3 |  |  |  |  |  |  |  |  |  |  |  |  | IC50 (neutralizing activity, pseudovirus) [27]: > 10 µg/mL
4980_N08 (PGT-143) (antibody) | 0.003 | 0.107 | 43 |  |  |  |  |  |  |  |  |  |  |  |  | IC50 (neutralizing activity, pseudovirus) [27]: > 10 µg/mL
PGV04 (antibody) |  | 0.056 | 0.352 |  |  |  |  |  |  |  |  |  |  |  |  | 
4993_K13 (PGT-141) (antibody) | 0.001 | 0.222 | 24.9 |  |  |  |  |  |  |  |  |  |  |  |  | IC50 (neutralizing activity, pseudovirus) [27]: > 10 µg/mL
4970_K22 (PGT-144) (antibody) | 0.052 | 0.562 | > 50 |  |  |  |  |  |  |  |  |  |  |  |  | IC50 (neutralizing activity, pseudovirus) [27]: > 10 µg/mL
5123_A06 (PGT-125) (antibody) |  |  |  | > 10 | > 50 | 0.004 | 2.46 | > 50 | 2.84 | 14 | > 50 | > 50 | 0.009 | 0.036 | 8.06 | IC50 neutralization [25]: 7.31 µg/mL; neutralization IC50 (pseudovirus) [39]: > 10 µg/mL; neutralization IC50 (pseudovirus) [27]: 0.0156 µg/mL
5141_B17 (PGT-126) (antibody) |  |  |  | > 10 | > 50 | 0.003 | 0.042 | > 50 | 0.084 | 0.196 | 0.023 | 43.1 | 0.015 | 0.027 | 0.353 | IC50 neutralization [25]: 0.501 µg/mL; neutralization IC50 (pseudovirus) [39]: > 10 µg/mL; neutralization IC50 (pseudovirus) [27]: 0.014 µg/mL
5136_H01 (PGT-131) (antibody) | 0.014 |  |  |  |  |  |  |  |  |  |  |  |  |  |  | IC50 neutralization [1]: > 50 µg/mL; IC50 (µg/mL), pseudovirus neutralization [2]: 0.03 µg/mL; IC50 [3]: 1.1 µg/mL; IC50 (µg/mL), pseudovirus neutralization [4]: > 50 µg/mL; IC50 (µg/mL), pseudovirus neutralization [5]: > 50 µg/mL; IC50 neutralization [6]: 1.91 µg/mL; IC50 (µg/mL), pseudovirus neutralization [7]: 15.4 µg/mL; IC50 (µg/mL), pseudovirus neutralization [9]: > 50 µg/mL; IC50 neutralization [10]: > 50 µg/mL; IC50 (µg/mL), pseudovirus neutralization [11]: 0.013 µg/mL; IC50 neutralization [12]: 0.04 µg/mL; IC50 neutralization [13]: > 50 µg/mL; IC50 (µg/mL), pseudovirus neutralization [14]: 2.92 µg/mL; IC50 neutralization [15]: > 50 µg/mL; IC50 (µg/mL), pseudovirus neutralization [16]: 0.021 µg/mL
4858_P08 (PGT-123) (antibody) |  |  |  | > 10 | > 50 | 0.005 | 0.002 | > 50 | 0.147 | 0.402 | 0.018 | > 50 | 0.004 | 0.227 | 0.114 | IC50 neutralization [25]: 0.18 µg/mL; neutralization IC50 (pseudovirus) [39]: > 10 µg/mL; neutralization IC50 (pseudovirus) [27]: 0.0283 µg/mL
5114_A19 (PGT-128) (antibody) | 0.01 |  |  |  |  |  |  |  |  |  |  |  |  |  |  | IC50 neutralization [1]: 1.58 µg/mL; IC50 (µg/mL), pseudovirus neutralization [2]: 0.004 µg/mL; IC50 [3]: 0.011 µg/mL; IC50 (µg/mL), pseudovirus neutralization [4]: > 50 µg/mL; IC50 (µg/mL), pseudovirus neutralization [5]: 1.06 µg/mL; IC50 neutralization [6]: 0.018 µg/mL; IC50 (µg/mL), pseudovirus neutralization [7]: 0.007 µg/mL; IC50 (µg/mL), pseudovirus neutralization [9]: 0.083 µg/mL; IC50 neutralization [10]: 0.019 µg/mL; IC50 (µg/mL), pseudovirus neutralization [11]: 0.007 µg/mL; IC50 neutralization [12]: 0.009 µg/mL; IC50 neutralization [13]: > 50 µg/mL; IC50 (µg/mL), pseudovirus neutralization [14]: 34.8 µg/mL; IC50 neutralization [15]: 0.007 µg/mL; IC50 (µg/mL), pseudovirus neutralization [16]: 0.01 µg/mL
4838_L06 (PGT-121) (antibody) |  |  |  | > 10 | > 50 | 0.005 | 0.002 | > 50 | 0.615 | 0.472 | 0.01 | > 50 | 0.005 | 0.036 | 0.066 | neutralization IC50 (pseudovirus) [39]: > 10 µg/mL
5145_B14 (PGT-127) (antibody) |  |  |  |  | > 50 | 0.019 | > 50 | > 50 | 2.23 | 7.57 | 0.015 | > 50 | 0.024 | 0.075 | 10.4 | 
